The experiment deals with T1, 6xHis-CIPK6 (Arabidopsis thaliana, UniProt O65554 1-441).
T1 sequence: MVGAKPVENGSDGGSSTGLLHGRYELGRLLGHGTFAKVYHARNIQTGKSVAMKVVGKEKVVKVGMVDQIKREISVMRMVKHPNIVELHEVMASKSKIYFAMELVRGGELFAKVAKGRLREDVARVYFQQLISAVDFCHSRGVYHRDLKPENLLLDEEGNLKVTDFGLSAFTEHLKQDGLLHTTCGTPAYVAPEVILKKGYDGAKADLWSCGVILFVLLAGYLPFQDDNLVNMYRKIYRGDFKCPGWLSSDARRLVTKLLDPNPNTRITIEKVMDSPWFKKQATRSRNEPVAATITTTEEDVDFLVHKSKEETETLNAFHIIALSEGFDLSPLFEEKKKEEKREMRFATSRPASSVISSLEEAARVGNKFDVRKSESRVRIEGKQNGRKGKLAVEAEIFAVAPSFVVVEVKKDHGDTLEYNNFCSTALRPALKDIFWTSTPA
Description: pull-down.

B1: GST-RbohD-N (domain or fragment)
chain: MKMRRGNSSNDHELGILRGANSDTNSDTESIASDRGAFSGPLGRPKRASKKNARFADDLPKRSNSVAGGRGDDDEYVEITLDIRDDSVAVHSVQQAAGGGGHLEDPELALLTKKTLESSLNNTTSLSFFRSTSSRIKNASRELRRVFSRRPSPAVRRFDRTSSAAIHALKGLKFIATKTAAWPAVDQRFDKLSADSNGLLLSAKFWECLGMNKESKDFADQLFRALARRNNVSGDAITKEQLRIFWEQISDESFDAKLQVFFDMVDKDEDGRVTEEEVAEIISLSASANKLSNIQKQAKEYAALIMEELDPDNAGFIMIENLEMLLLQAPNQSVRMGDSRILSQMLSQKLRPAKESNPLVRWSEKIKYFILDNWQR
For B1, the binding result is reported as “binds”.
